Data: publication PMC10365013

Target: avi-tagged SHOC2 (human) (UniProt Q9UQ13)
Experiment: SPR

Sequence of avi-tagged SHOC2 (human) (Q9UQ13 whole entry): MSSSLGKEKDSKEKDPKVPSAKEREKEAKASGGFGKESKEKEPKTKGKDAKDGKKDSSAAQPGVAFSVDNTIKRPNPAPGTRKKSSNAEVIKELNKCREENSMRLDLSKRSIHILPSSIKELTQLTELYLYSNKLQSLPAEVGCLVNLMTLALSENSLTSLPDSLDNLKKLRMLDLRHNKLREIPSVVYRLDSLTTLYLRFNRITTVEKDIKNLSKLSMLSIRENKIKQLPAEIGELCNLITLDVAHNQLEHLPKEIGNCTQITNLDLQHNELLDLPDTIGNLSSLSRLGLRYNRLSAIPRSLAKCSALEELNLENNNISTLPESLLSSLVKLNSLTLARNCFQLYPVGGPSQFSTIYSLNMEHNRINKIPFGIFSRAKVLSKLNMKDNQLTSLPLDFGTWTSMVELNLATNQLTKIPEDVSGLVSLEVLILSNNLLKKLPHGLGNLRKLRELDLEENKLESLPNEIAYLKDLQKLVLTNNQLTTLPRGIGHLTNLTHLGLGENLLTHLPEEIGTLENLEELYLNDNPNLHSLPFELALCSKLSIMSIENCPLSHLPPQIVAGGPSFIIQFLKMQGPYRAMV

## KRAS (1–169) (from UniProt P01116 1-169) (domain or fragment)
  apparent KD of ternary complex formation with m3: 700 nM
